Test results from US9803013B2, “Biological materials and uses thereof” (BioInvent International AB, priority 2005, dated 2017).
Where two headings read alike, the source gives them in different places.

Columns and labels:
[1] = mouse
Method: Blood samples collected from the vena cava were centrifuged at 2500 g for 15 min to obtain serum and the samples were stored at −20° C.
Sera were prepared from blood samples collected from the vena saphena from 3 animals in each group at different time-points during the course of in vivo experimentation. Briefly, ELISA plates were coated over night with human ICAM-1 protein. The following day, plates were incubated with the serum samples. Biotinylated goat-anti-BI-505 was used for detection of BI-505 in the serum samples. Sera were analysed by ELISA to determine BI-505 trough levels. Trough BI-505 serum concentrations were then plotted as a function of dose and were fitted using five parameter log-log curve and XLfit software (IDBS, Guildford, United Kingdom).

[2] = test system: THP-1 monocytic leukaemia cells; experiment: IgG binding to tumour cell line, flow cytometry; parameters: species or system human
Excerpt: (§1) FIG. 6—Binding of B1, B11, C11 IgG, to tumour cell lines of different origin. The antigen distribution of antigens targeted by the B1, B11, and C11 antibodies on different carcinoma cell lines was investigated by flow-cytometry.
(§2) The antigen distribution of human antibody targeted antigens, mainly for B11, on different carcinoma cell lines was investigated. Cells (MCF-7 and MDA MB 435S breast carcinoma, JAR and JEG-3 chorio-carcinoma, A549 lung carcinoma, TCC-SUP urinary bladder carcinoma, MDA MB 435 melanoma, HPAC, PANC-1 and BxPC-3 pancreatic carcinoma, PC-3 and DU145 prostate carcinoma, LS174 T, CaCo2, and Lovo colorectal carcinoma, and THP-1 monocytic leukaemia cells), were washed in PBS, and resuspended at 4×10^6 cells/ml in Complete Medium (200,000 cells/50 […] sample). […] Cells were incubated with either of the antibodies for 1 hour on ice, washed by resuspension in PBS/BSA 0.5%, centrifuged at 1200 rpm for 5 min, and complete aspiration of the supernatants was undertaken. Cells were incubated with PE-conjugated Goat F(ab′)2 anti-Human IgG (Caltag Laboratories, Cat no: H10104), diluted 1/50 in PBS/BSA 0.5%, for 30 min, on ice. Following resuspension of in 300 μl PBS/BSA 0.5%, cells were analysed for IgG binding using a FACScan instrument.

[3] = test system: HPAC pancreatic carcinoma; experiment: IgG binding to tumour cell line, flow cytometry; parameters: species or system human; conditions: compared to the prostate cancer cells
Excerpt: as §1, §2

[4] = test system: MCF-7 breast carcinoma; experiment: IgG binding to tumour cell line, flow cytometry; parameters: species or system human; conditions: MCF-7, compared to the prostate cancer cells
Excerpt: as §1, §2

[5] = test system: LS174 T colorectal carcinoma; experiment: IgG binding to tumour cell line, flow cytometry; parameters: species or system human; conditions: compared to the prostate cancer cells
Excerpt: as §1, §2

[6] = biological target: T1, mouse FcγRIV (Mus musculus, UniProt A0A0B4J1G0); experiment: BiaCore analysis of BI-505 Fc-variant binding to FcγR
T1 construct: made in house; host or cells: HEK293E cells (transient)
T1 sequence (A0A0B4J1G0 21-249): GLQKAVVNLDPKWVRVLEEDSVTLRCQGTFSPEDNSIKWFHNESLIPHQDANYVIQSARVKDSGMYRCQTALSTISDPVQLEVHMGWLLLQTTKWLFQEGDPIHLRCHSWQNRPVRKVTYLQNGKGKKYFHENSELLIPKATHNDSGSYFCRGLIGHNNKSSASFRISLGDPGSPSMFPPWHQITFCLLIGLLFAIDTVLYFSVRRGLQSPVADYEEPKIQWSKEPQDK
Method: (FIG. 20B) BiaCore analysis of BI-505 Fc-variant antibodies binding to mouse FcγRIV.
His-tagged human FcγRIIIa and mouse FcγRIV were transiently expressed in HEK293E cells, purified using Ni-NTA chromatography, and characterized by SDS-PAGE and/or Biacore. Surface plasmon resonance (SPR) measurements were performed using a Biacore 3000 instrument. Goat F(ab)′2 α-human-F(ab)′2 fragments (Jackson Laboratories) were immobilized with a CM-5 chip using a standard amine coupling protocol. BI-505 (IgG1) and IgG4 or IgG1 297Q variants of BI-505 were diluted to 15 and 60 μg/mL respectively and added to the surface at 10 μL/min for 3 min. His-tagged human FcγRIIIa or mouse FcγRIV was pre-incubated with an α-HIS antibody (R&D Systems) at a 2:1 molar ratio before addition to the chip surface, 30 μL/min, for 1 min. After each cycle the surface was regenerated twice with glycine buffer pH 1.7.

B1: B11: fully human IgG1 antibody specific for ICAM-1; VH and VL sequences of FIG. 10 (SEQ ID NOs. 6 and 8) (antibody, listed as Homo sapiens, V domains shown)
VH: EVQLLESGGGLVQPGGSLRLSCAASGFTFSNAWMSWVRQAPGKGLEWVAFIWYDGSNKYYADSVKGRFTISRDNSKNTLYLQMNSLRAEDTAVYYCARYSGWYFDYWGQGTLVTVSS
VL: QSVLTQPPSASGTPGQRVTISCTGSSSNIGAGYDVHWYQQLPGTAPKLLIYDNNNRPSGVPDRFSGSKSGTSASLAISGLRSEDEADYYCQSYDSSLSAWLFGGGTKLTVLG
In the case of B1, the “In vivo serum concentrations” value ([1]; 0.02 mg/kg) is reported as 0.06 ± 0.02 µg/mL, the “In vivo serum concentrations” value ([1]; 0.2 mg/kg) is reported as 1.2 ± 0.4 µg/mL and the “In vivo serum concentrations” value ([1]; 2 mg/kg) is reported as 20 ± 2.9 µg/mL. For the same molecule, the “binding / ICAM-1 expression” value [2] was “did not express ICAM-1”, the “binding / ICAM-1 expression” value [3] was “lower intensity” and the “binding / ICAM-1 expression” value [4] was “lower intensity”. The “binding / ICAM-1 expression” value [5] was “lower intensity” and the “binding to mouse FcγRIV, order” value [6] was “IgG1 N297Q<IgG4<IgG1”.
